According to PMC12607630 (2025):

Key:
Assay in all cases: BLI
SUMO-FtsZ^316-370 = biological target: T1, SUMO-FtsZ^316-370 (Escherichia coli, UniProt P0A9A6 316-370)
T1 chain: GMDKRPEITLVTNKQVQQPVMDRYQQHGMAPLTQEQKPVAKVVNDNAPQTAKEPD

SUMO-FtsZ^370-383 = biological target: T2, SUMO-FtsZ^370-383 (Escherichia coli, UniProt P0A9A6 370-383)
T2 chain: DYLDIPAFLRKQAD

6×His-ZapC^K94D = 6×His-ZapC^K94D (Escherichia coli, UniProt P75862 1-180, K94D)
6×His-ZapC^F30D = 6×His-ZapC^F30D (Escherichia coli, UniProt P75862 1-180, F30D)

Binder | Kd (SUMO-FtsZ^316-370) [µM] | Kd (SUMO-FtsZ^370-383) [µM] | Kd (6×His-ZapC^K94D) [µM] | Kd (6×His-ZapC^F30D) [µM]
ZapC (untagged) (natural protein) not shown | 50.7 | 11.4 | – | –
FtsZ (wild-type, untagged) (natural protein) MFEPMELTNDAVIKVIGVGGGGGNAVEHMVRERIEGVEFFAVNTDAQALRKTAVGQTIQIGSGITKGLGAGANPEVGRNAADEDRDALRAALEGADMVFIAAGMGGGTGTGAAPVVAEVAKDLGILTVAVVTKPFNFEGKKRMAFAEQGITELSKHVDSLITIPNDKLLKVLGRGISLLDAFGAANDVLKGAVQGIAELITRPGLMNVDFADVRTVMSEMGYAMMGSGVASGEDRAEEAAEMAISSPLLEDIDLSGARGVLVNITAGFDLRLDEFETVGNTIRAFASDNATVVIGTSLDPDMNDELRVTVVATGIGMDKRPEITLVTNKQVQQPVMDRYQQHGMAPLTQEQKPVAKVVNDNAPQTAKEPDYLDIPAFLRKQAD | – | – | 2.1 | 2.97
